Each block holds one substance with its values, some of them ahead of it.
Legend:
[1] = tested on: CaM isoforms 2, 4, and 6 from Arabidopsis; assay: Slot blot: synthetic peptides probed with 35S-labeled AtCaM isoforms; assay type: binding, Arabidopsis thaliana
Procedure: Soluble and insoluble proteins from the induced and un-induced cultures were separated on 12% SDS-polyacrylamide gels and blotted as described above. To detect the binding of the expressed proteins to ^35S-labeled AtCaM, duplicate blots were blocked for 15 min in TBS (50 mM Tris-HCl, pH 7.5, 150 mM NaCl) containing 5 mM of either CaCl2 or EGTA and 1% nonfat dry milk. The blots were then incubated for 12 h in a mixture of ^35S-labeled AtCaM isoforms at […] in the same buffers as above. The filters were then washed with the corresponding buffer and dried before exposing to X-ray film. Binding to biotinylated CaM was detected by blocking the blots in 3% gelatin in TBS/Ca/Mg or TBS/EGTA/Mg (50 mM Tris-HCl, pH 7.5, 50 mM MgCl2, 150 mM NaCl, and 5 mM of either CaCl2 or EGTA) at 30° C. […] The blots were then incubated in Vectastain ABC.HRP in TBS/Ca/Mg or TBS/EGTA/Mg for 30 min, washed 3 times, 10 min each, with the above buffer and the CaM-binding proteins were detected colorimetrically in a substrate solution (0.8 mg/ml diaminobenzidine, 0.4 mg/ml NiCl2, and 0.009% H2O2 in 100 mM Tris-HCl, pH 7.5). […]
The interaction between synthetic peptides and AtCaM isoforms was analyzed by applying synthetic peptides to a nitrocellulose membrane in a slot blot apparatus, and incubating the membrane individually with ^35S-labeled AtCaM isoforms using the method described above.

[2] = tested on: 35S-labeled AtCaM; assay: Blot overlay of bacterially expressed maize NPG1 fusion proteins with 35S-CaM; assay type: binding, Arabidopsis thaliana; details: in the presence of Ca2+
Procedure: The 1.2-kb cDNA insert (named P3) containing the coding region for 242 amino acids in the carboxyl-terminal region was cloned in-frame into a pET28b expression vector. For mapping the CaM-binding domain, several truncated constructs were prepared in a pET vector. The P3 cDNA in pET28 was digested with either NcoI or BamHI to release a 168- or 717-bp fragment corresponding to the 5′ end of the cDNA. The NcoI and BamHI fragments were cloned into pET28b vector digested with the respective enzymes to generate P3/NcoI and P3/BamHI clones. The P3 clones lacking either NcoI or BamHI fragments were religated to generate PΔNcoI and PΔBamHI expression clones. […]
Soluble and insoluble proteins from the induced and un-induced cultures were separated on 12% SDS-polyacrylamide gels and blotted as described above. […] Binding to biotinylated CaM was detected by blocking the blots in 3% gelatin in TBS/Ca/Mg or TBS/EGTA/Mg (50 mM Tris-HCl, pH 7.5, 50 mM MgCl2, 150 mM NaCl, and 5 mM of either CaCl2 or EGTA) at 30° C. […] The blots were then incubated in Vectastain ABC.HRP in TBS/Ca/Mg or TBS/EGTA/Mg for 30 min, washed 3 times, 10 min each, with the above buffer and the CaM-binding proteins were detected colorimetrically in a substrate solution (0.8 mg/ml diaminobenzidine, 0.4 mg/ml NiCl2, and 0.009% H2O2 in 100 mM Tris-HCl, pH 7.5).

[3] = tested on: AtCaM isoforms (CaM2, CaM4, CaM6); assay: Calmodulin electrophoretic mobility shift assay in 4 M urea gels; assay type: binding, Arabidopsis thaliana
Procedure: (§1) The interaction of CaM with synthetic peptide was also analyzed using electrophoretic mobility shift of CaM in the presence of a synthetic peptide. Each of the AtCaM isoforms and bovine CaM (166 pmol) were incubated with increasing concentrations of maize NPG1-synthetic peptide (166, 332, and 664 pmol) in the presence of 4 M urea, in a buffer containing 100 mM Tris-HCl, pH 7.5, and 1 mM CaCl2 or 5 mM EGTA at room temperature for 1 h in a total volume of […]. Then, […] of sample buffer (0.375 M Tris-HCl, pH 6.8, 30% glycerol, and 0.023% bromphenol blue) was added to the samples and the mixture was electrophoresed in 12% polyacrylamide gels containing 4 M urea or 7.5% glycerol, 0.375 M Tris-HCl, pH 8.8, and either 1 mM CaCl2 or 5 mM EGTA. The gels were run at a constant voltage of 25 V per gel in an electrode buffer (25 mM Tris-HCl, pH 8.3, 192 mM glycine, and either 1 mM CaCl2 or 5 mM EGTA). The gels were stained with 0.25% Coomassie Blue R-250 in 7.5% acetic acid and 50% methanol for 1 h and then destained with 30% methanol and 7% acetic acid.

[4] = target: T1, bovine CaM (Bos taurus, UniProt P62157); assay: Binding of synthetic peptide to bovine CaM; details: 'at concentrations as low as'
T1 construct: purchased Calbiochem-Novabiochem (San Diego, Calif.)

[5] = target: T1, bovine CaM; assay: Calmodulin electrophoretic mobility shift assay in 4 M urea gels; assay type: binding
Procedure: as §1

[6] = target: T2, CaM4 (Arabidopsis thaliana, UniProt P0DH96); assay: Tryptophan fluorescence spectroscopy of peptide with CaM; assay type: binding
T2 construct: made in house; host or cells: E. coli BL21(DE3)
Procedure: (§2) The tryptophan fluorescence spectra of free and CaM-bound synthetic peptide were recorded with a Hitachi-F-3010/4010 spectrofluorimeter as described in Reddy et al. (1996) supra. NPG1 peptide and AtCaMs (166 pmol each) were mixed in a […] reaction volume. The tryptophan residue in free and CaM-bound synthetic NPG1 peptide was excited at 290 nm and the emission wavelength values were recorded from 300 to 400 nm with a bandwidth of 5 nm in a 5-mm quartz cell at 25° C. Samples were incubated for 1 h at 25° C. prior to spectroscopic measurements. Corrections were made for the protein and solvent blanks.

[7] = target: T3, CaM2 (Arabidopsis thaliana, UniProt P0DH97); assay: as above; assay type: binding; details: equimolar peptide and CaM2, excitation 290 nm; free peptide about 350 nm
T3 construct: made in house; host or cells: E. coli BL21(DE3)
Procedure: as §2

[8] = target: T4, CaM6 (Arabidopsis thaliana, UniProt Q03509); assay: as above; assay type: binding; details: equimolar peptide and CaM6, excitation 290 nm; free peptide about 350 nm
T4 construct: made in house; host or cells: E. coli BL21(DE3)
Procedure: as §2

[9] = target: T1, bovine CaM; assay: as above; assay type: binding; details: equimolar peptide and bovine CaM, excitation 290 nm; free peptide about 350 nm
Procedure: as §2

[10] = tested on: CaM; assay: CaM binding of truncated Arabidopsis NPG1
Excerpt: To map the CaM-binding domain, a truncated version (aa 448-496 of SEQ ID NO:10) of Arabidopsis NPG1 which contains a putative calmodulin-binding domain was expressed in E. coli and tested for its ability to bind CaM. […] The CBD was further mapped to an eighteen amino acid stretch (aa 464-481) by using synthetic peptides in a gel-shift assay.

[11] = molar ratio 1:1 (peptide:CaM), CaCl2, 4 M urea
[12] = molar ratio 2:1 and 4:1 (peptide:CaM), CaCl2, 4 M urea

binding to the labeled CaM isoforms ([1]; 35S-labeled AtCaM isoforms, slot blot): Neither MP2 nor BSA showed any binding
Substance: AKLDQGSLLRVKA-KLKVAQSSPM (AKLDQGSLLRVKAKLKVAQSSPM) [MP-2]

binding to 35S-CaM [2]: produced CaM-binding peptide
Substance: P3/NcoI: truncated P3 fusion protein (16 kDa) from the 168-bp NcoI fragment at the 5′ end of the cDNA (GGSVSKGWRLLALILSAQQRFSEAEVATDAALDETAKLDQGSLLRVKAKLKVAQSSP; left off: small tags and cut ends)

Substance: VSKGWRLLALILSAQQRF [MP-1]
change in CaM mobility ([3]; in the presence of EGTA): No change in CaM mobility | CaM showing a mobility shift [3, 11]: about 50% | CaM migrating as peptide complex [3, 12]: the entire CaM migrated as a complex | lowest amount of synthetic peptide that bound CaM ([1]; CaM isoforms 2, 4, and 6, 'at concentrations as low as'): 0.5 µg | lowest amount of synthetic peptide that bound CaM [4]: 0.5 µg | change in CaM mobility ([5]; in the presence of EGTA): No change in CaM mobility | CaM showing a mobility shift [5, 11]: about 50% | CaM migrating as peptide complex [5, 12]: the entire CaM migrated as a complex | wavelength of peak emission ([6]; equimolar peptide and CaM4, excitation 290 nm, free peptide about 350 nm): about 315 nm | fluorescence intensity ([6]; in the presence of CaM4, free peptide about 0.1): about 4.5 | wavelength of peak emission [7]: about 315 nm | wavelength of peak emission [8]: about 315 nm | wavelength of peak emission [9]: about 315 nm

Substance: truncated version (aa 448-496 of SEQ ID NO:10): truncated Arabidopsis NPG1 containing a putative calmodulin-binding domain, expressed in E. coli (AASRYAKEFIDATGGSVLKGWRFLALVLSAQQRFSEAEVVTDAALDETA; listed as Arabidopsis thaliana)
ability to bind CaM [10]: bound CaM in a manner similar to the full-length protein

— patent US20030061635A1, “Pollen-specific novel calmodulin-binding protein, NPG1 (No Pollen Germination1), promoter, coding sequences and methods for using the same” (priority 2001, published 2003)
